Tests used:
[1] = target: T1, Clostridium difficile toxin A (Clostridium difficile, UniProt P16154 1-2710); experiment: cell-based or functional assay
[2] = target: T2, toxin A fragment 4 (receptor-binding domain, amino acids 1853 to 2710 of toxin A) (Clostridium difficile, UniProt P16154 1853-2710); experiment: Western blotting on E. coli lysates of toxin A fragments
T2 construct: also called RB domain

[3] = target: T1, Clostridium difficile toxin A; experiment: SPR, Biacore T200, biotinylated toxin A on sensor chip CAP, antibody flowed
[4] = target: Clostridium difficile toxin B (Clostridium difficile, UniProt P18177 2-2366); experiment: cell-based or functional assay
[5] = target: T3, toxin B fragment 4 (receptor-binding domain, amino acids 1777 to 2366 of toxin B) (Clostridium difficile, UniProt P18177 1777-2366); experiment: Western blotting on E. coli lysates of toxin B fragments
T3 construct: also called RB domain
T3 sequence (P18177 1777-2366): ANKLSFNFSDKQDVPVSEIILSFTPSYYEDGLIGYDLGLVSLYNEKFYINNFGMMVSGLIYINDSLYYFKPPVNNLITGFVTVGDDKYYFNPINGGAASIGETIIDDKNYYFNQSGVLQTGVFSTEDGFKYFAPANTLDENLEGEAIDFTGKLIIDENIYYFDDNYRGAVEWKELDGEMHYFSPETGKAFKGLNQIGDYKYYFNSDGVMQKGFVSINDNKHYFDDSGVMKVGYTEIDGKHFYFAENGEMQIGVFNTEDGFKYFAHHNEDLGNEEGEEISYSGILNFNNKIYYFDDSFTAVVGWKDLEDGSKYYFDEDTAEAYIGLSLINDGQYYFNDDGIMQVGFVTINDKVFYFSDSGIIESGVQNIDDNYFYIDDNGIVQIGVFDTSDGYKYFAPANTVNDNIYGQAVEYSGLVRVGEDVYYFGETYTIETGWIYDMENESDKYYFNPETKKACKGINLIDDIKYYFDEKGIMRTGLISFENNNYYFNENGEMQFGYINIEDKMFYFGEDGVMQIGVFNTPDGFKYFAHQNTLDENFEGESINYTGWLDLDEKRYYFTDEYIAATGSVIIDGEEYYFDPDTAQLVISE

T1 sequence (P16154 whole entry, the tested form may be a part): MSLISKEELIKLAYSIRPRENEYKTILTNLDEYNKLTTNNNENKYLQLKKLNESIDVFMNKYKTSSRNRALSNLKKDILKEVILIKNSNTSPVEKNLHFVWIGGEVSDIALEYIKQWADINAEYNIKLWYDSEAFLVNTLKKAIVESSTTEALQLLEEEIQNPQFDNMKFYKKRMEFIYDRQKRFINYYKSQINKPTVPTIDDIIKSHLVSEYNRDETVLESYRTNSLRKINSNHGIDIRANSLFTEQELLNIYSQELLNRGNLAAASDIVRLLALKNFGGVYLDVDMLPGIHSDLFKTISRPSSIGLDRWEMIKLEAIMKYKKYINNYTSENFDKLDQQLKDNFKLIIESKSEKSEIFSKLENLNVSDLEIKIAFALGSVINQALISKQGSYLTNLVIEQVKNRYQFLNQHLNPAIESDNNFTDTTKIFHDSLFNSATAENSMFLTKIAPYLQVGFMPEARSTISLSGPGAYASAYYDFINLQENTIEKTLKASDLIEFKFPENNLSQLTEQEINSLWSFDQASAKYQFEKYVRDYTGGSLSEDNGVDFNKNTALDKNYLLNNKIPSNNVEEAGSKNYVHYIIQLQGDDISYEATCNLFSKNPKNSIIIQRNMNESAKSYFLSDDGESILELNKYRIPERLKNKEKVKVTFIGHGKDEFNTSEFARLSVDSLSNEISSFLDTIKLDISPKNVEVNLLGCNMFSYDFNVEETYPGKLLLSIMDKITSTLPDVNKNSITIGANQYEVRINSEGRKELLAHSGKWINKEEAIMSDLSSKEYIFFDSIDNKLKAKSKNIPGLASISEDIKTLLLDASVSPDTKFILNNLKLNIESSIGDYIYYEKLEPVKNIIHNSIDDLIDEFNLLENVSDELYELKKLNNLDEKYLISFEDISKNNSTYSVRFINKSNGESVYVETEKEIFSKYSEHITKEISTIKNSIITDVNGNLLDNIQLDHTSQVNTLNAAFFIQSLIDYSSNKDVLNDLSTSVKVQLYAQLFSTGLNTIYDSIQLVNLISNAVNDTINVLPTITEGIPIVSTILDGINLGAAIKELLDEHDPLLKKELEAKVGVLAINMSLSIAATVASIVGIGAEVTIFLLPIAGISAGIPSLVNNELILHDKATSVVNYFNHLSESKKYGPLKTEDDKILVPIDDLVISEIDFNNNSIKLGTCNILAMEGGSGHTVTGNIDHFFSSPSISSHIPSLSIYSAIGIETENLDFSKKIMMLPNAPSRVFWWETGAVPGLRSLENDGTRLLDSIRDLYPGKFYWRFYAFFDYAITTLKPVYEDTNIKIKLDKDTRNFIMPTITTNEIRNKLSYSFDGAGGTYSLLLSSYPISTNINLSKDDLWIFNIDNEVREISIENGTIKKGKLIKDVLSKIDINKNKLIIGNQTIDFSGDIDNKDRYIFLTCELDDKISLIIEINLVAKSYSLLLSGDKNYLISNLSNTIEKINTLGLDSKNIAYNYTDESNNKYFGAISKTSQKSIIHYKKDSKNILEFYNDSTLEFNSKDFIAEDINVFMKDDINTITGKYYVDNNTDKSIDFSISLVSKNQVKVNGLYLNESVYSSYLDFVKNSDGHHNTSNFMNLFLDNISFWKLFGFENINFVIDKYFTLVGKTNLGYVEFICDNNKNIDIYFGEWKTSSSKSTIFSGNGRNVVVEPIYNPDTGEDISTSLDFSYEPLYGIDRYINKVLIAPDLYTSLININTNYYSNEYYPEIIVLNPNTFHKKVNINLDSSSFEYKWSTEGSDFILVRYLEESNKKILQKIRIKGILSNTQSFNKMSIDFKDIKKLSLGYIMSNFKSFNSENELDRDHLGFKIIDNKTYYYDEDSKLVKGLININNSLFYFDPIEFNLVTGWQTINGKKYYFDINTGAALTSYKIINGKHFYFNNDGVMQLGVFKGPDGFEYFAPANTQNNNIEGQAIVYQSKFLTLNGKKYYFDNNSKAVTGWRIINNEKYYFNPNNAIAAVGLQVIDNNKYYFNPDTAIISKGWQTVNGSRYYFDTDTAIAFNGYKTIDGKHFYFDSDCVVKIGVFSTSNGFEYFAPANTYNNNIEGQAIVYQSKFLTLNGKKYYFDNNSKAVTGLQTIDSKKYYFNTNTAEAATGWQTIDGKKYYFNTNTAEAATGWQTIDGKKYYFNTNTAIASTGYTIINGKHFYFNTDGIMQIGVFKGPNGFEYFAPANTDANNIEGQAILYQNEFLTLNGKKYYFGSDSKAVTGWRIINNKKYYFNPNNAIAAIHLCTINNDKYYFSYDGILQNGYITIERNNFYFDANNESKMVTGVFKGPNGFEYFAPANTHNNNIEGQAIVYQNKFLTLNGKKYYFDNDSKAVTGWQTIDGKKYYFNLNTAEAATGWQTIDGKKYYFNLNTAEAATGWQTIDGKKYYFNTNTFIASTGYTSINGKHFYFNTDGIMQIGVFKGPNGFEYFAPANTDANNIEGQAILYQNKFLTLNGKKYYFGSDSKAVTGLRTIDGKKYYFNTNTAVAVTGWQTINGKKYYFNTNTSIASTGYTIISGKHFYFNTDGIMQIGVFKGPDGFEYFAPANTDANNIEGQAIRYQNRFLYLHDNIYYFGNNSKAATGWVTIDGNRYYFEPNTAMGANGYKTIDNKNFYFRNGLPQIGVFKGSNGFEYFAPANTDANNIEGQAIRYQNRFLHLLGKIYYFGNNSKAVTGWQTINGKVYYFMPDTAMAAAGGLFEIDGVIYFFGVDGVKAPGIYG
T2 sequence (P16154 1853-2710): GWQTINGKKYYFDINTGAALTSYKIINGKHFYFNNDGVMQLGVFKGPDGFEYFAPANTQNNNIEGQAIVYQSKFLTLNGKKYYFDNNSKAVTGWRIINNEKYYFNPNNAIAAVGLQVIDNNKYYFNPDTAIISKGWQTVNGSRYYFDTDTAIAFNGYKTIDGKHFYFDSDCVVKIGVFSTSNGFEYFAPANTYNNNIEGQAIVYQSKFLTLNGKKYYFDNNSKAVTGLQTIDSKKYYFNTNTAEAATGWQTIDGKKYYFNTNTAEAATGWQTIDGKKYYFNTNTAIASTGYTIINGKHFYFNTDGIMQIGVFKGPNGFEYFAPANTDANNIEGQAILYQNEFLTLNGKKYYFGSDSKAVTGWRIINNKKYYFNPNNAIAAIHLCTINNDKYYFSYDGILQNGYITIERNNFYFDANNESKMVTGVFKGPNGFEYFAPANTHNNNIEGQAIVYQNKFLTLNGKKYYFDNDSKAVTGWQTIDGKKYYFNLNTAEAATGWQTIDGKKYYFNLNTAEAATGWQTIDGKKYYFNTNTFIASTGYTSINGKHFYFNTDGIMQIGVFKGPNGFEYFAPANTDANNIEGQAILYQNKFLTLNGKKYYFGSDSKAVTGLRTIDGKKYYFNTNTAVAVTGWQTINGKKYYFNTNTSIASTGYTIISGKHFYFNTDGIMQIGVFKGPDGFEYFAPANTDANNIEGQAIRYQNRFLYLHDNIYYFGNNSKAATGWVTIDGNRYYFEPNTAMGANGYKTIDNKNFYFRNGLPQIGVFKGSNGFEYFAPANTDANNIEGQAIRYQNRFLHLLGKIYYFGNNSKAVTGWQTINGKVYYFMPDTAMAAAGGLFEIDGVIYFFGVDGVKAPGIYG

B1: EV029105a (antibody, human IgG1, kappa, V domains shown)
VH: QVQLVQSGAEVKKPGSSVKVSCKASGDTFSSHAITWVRQAPGQGLEWMGRIIPIFSISDYAQKFQGRVTFTADKSTSIAFMELSSLRSQDTAVYYCARSLLAYCTGGSCSEFGAEDHWGQGTLVTVSS
VL: EIVLTQSPGTLSLSPGERATLSCRASQSVSSNYLAWYQQKPGQAPRLLIFGASSRATGIPDRFSGSGSGTDFTLTISRLEPEDFAVYYCQQYGSSIPVTFGQGTKVEIKR
notes: also called anti-toxin A antibody EV029105a
For B1, the “EC50 (ng/mL), neutralizing activity against the cytotoxicity of toxin A to IMR-90 cells (cell rounding)” value [1] was 4.92 ng/mL, the “EC50, neutralizing activity against the cytotoxicity of toxin A to IMR-90 cells (cell rounding)” value [1] was 33 pM and the binding result [2] was “binds”. The Kd [3] was 151 pM, the koff [3] was 9.89e-05 s⁻¹ and the kon [3] was 653000 M⁻¹ s⁻¹.

B2: EV029104 (antibody, human IgG1, lambda, V domains shown)
VH: EVQLVESGGGLVQPGGSLRLSCAASGLTINSYWMNWVRQIPGKGLEWVANINPTGSQQYYVDSVRGRFTISRDDAKKSLFLQLDSLRVEDTAVYYCARGRRGNSAYCDSWGQGTQVTVSS
VL: QSALTQPRSVSGSPGQSVTISCTGTSSDIGAYDYVSWYRHHPGKAPKLIIFDVAKWPSGVPDRFSGSKSGNTASLTISGLQDDDEGDYYCCSYAGRFSLIFGGGTKLTVLG
notes: also called anti-toxin B antibody EV029104
For B2, the “neutralizing activity (EC50 value), rounding of toxin B-exposed IMR-90 cells” value [4] was no more than 100 ng/mL and the binding result [5] was “binds”.

Source: patent US20150259402A1 (EVEC, published 2015)
